For one data set, the system named is Caco-2 cell monolayers. The data set is described as follows: Lysosomal degradation of INS in cell monolayers, UiO-68-NH2 nanosystems. In kind it is cell-based, human. Conditions: 2 h incubation.
Data set [1] in a line: In vivo fluorescence imaging and biodistribution of RITC-INS formulations (UiO-68-NH2). The arrangement: species or system mice; rats. Here is the method:
RITC-INS, RITC-INS@U, T@RITC-INS@U were orally administered to the overnight fasted mice for in vivo fluorescence imaging. The fluorescence images of mice were captured at different time points using the SI Imaging Amix imaging system to evaluate the metabolic process of INS preparations. Another group of mice was sacrificed after 4 h of treatment. The images of organs and intestines were also obtained. Different formulations were orally administered to the overnight fasted rats for 4 h. Then the rats were sacrificed, and the intestine loops were excised and frozen in Tissue-Tek OCT with liquid nitrogen. Cross intestine sections were obtained using a freezing microtome blade and then stained the intestine sections with DAPI for 10 min and visualized by CLSM.

For a further data set, the system named is blood glucose level. The data set is described as follows: In vivo pharmacodynamics, blood glucose after T@I@U, I@U and free INS. The arrangement: species or system alloxan-induced diabetic rats and mice. The protocol: In vivo INS bioactivity studies were performed in alloxan-induced diabetic animals (n=six per group). The rats and mice were induced to type I diabetes by alloxan injections. The animals were regarded as diabetic if their fasting blood glucose levels were higher than 11 mmol/L in one week after injection.

Data set [2] can be described thus: In vivo pharmacokinetics, serum INS (UiO-68-NH2 nanosystems). The protocol:
The rats and mice fasted overnight before experiments and then administered different samples by gavage. The […] effect was tested following the oral administration of I@U and T@I@U (20 IU/kg). As control groups, one group of rats were administered free INS (20 IU/kg) by oral gavage, and the other group was administered free INS (5 IU/kg) by s.c. injection. Blood samples were collected from the orbital venous plexus and analyzed using a blood glucose meter, expressed as the percentage of baseline serum glucose level (0 h) at different periods. The INS contents in blood samples were measured using the bovine INS ELISA kit. The 0 h INS content was subtracted from the INS measured at different time intervals and plotted.
Hypoglycemic effects (FIG. 7A, B) and insulin levels in the serum of SD rats (FIG. 7C) were tested after administration of equal amounts of insulin I @ U and T @ I @ U (20IU/kg) to diabetic mice (BALB/C mice) and rats (SD rats) by gavage. As a control group, one group of rats was administered insulin (20 IU/kg) by gavage, and the other group was administered insulin (5 IU/kg) by subcutaneous injection.

A short description of data set [3]: In vivo fluorescence imaging and biodistribution of PCN-777 formulations. The arrangement: species or system mice; rats. The following applies: 12 h after administration. The source says:
In vivo fluorescence imaging is undertaken. RITC-INS, RITC-INS@P, and R-I@F-P were orally administered to the overnight fasted diabetic mice or normal mice. The SI Imaging Amix imaging system was used to assess the distribution and metabolism of INS preparations in mice with different intestinal expressions of PCFT at different time points. Another group of diabetic mice or normal mice was sacrificed twelve hours after RITC-INS, RITC-INS@P, and R-I@F-P treatment, and the organs and intestines were collected and observed. The same procedure was done to diabetic rats. The intestine loops of the RITC-INS, RITC-INS@P, and R-I@F-P medicated rats were collected by the same procedure and frozen in Tissue-Tek OCT with liquid nitrogen. Intestinal sections were obtained using a cryostat and visualized by CLSM after staining with DAPI for 10 min.

For another data set, the system named is blood glucose levels. As to the kind of experiment: In vivo pharmacodynamics of PCN-777 nanosystems in rats. The arrangement: species or system SD rats. Conditions: diabetic rats. The protocol:
Animal models and diabetes induction were undertaken. Male Sprague Dawley rats (180-200 g) and BALB/c mice (18-20 g) were provided by Beijing Vital River Laboratory Animal Technology Co. Ltd. New Zealand rabbits (2-2.5 kg) were provided in all the animal studies were conducted following the Chinese Regulations for the Administration of Affairs Concerning Experimental Animals and performed in compliance with the guidelines of the Institutional Animal Care and Use Committee (IACUC) of Wuhan University. To establish an alloxan-induced diabetic rat model, healthy rats were intravenously injected with alloxan 50 mg/kg once and the blood glucose changes were monitored daily to confirm their diabetic status. After seven days, the blood glucose was stable at 20 mmol/L, proving the diabetes model was successfully established. The difference between the establishment of diabetes models of mice and rabbits was that the dosage of alloxan in mice and rabbits is 100 mg/kg. […] INS bioactivity in vivo was undertaken. In vivo studies were performed in alloxan-induced diabetic rats (n=five per group) and rabbits (n=three per group). […] At predetermined time intervals, blood samples were collected for glucose testing using a blood glucose meter. Serum insulin level was determined using a bovine INS ELISA kit. […]

The subject of the next data set is trypsin. The data set is described as follows: Protection of INS from trypsin degradation by UiO-68-NH2 nanosystems. The following applies: trypsin-containing HBSS buffer, 37 °C, 1 h.
Data set [4] has as its system Caco-2 cell monolayers with high or low expression of PCFT. The data set is described as follows: Transepithelial transport, TEER and INS degradation, PCN-777 nanosystems. The following applies: 48 h of incubation.
Method: The transepithelial transport studies were conducted following previously reported procedures. In short, the Caco-2 cells were cultured in transwell inserts for 21 days till the TEER values reached above 300Ω×cm^2. Caco-2 cell monolayers with high or low expression of PCFT were co-incubated with Free INS and I@P and I@F-P on the apical side for 48 hours. An amount of 100 μL of the sample was taken out from the basolateral side at different time intervals and 100 μL of DMEM was always supplemented to maintain a consistent volume. After 48 hours of incubation, samples of the apical and basolateral layers were collected respectively, and the cell monolayer was lysed with RIPA lysate and collected. The INS contents in each sample were then tested utilizing the bovine insulin ELISA kit. The degradation rate of INS in different preparations were calculated according to the following equation:
where m(total) is the total mass of INS added, m(apical) is the mass of INS in the apical layer, m(basolateral) is the mass of INS in the basolateral layer, and m(inside) is the mass of INS in the cell monolayer.
For data set [5] the following is noted: in vivo; cited from earlier work.

Method for trypsin: To determine whether UiO-68-NH2 could protect INS from digestive enzymes, the NPs were incubated in simulated intestinal fluid containing trypsin (1 mg/mL) at 37° C. Aliquots (100 μL) at specific time intervals were taken out and added 200 μL of DMSO containing 0.1% trifluoroacetic acid to stop the enzymatic reaction. The concentration of INS was determined with the Elisa kit in all the following experiments.
Aliquots (100 μL) were removed at specified time intervals, 200 μL of DMSO containing 0.1% trifluoroacetic acid was added to stop the enzymatic reaction, and the concentration of insulin in the solution was determined using an Elisa kit.

Take insulin [free INS]: in the data set with Caco-2 cell monolayers, the “ingested INS degraded” value is given as “about 50%”. Further, the “INS fluorescence in major organs / liver” value in data set [1] (4 h after oral administration) is recorded as “does not show any fluorescence signal”. Also, the “INS fluorescence in sectioned intestine epithelial tissue” value in data set [1] (confocal imaging, 2 h after administration) was “barely any fluorescence”. Moreover, in the data set on blood glucose level (oral gavage, 20 IU/kg), the blood glucose response entry is “fails to reduce the blood glucose level”. Further, the “time after which hypoglycemic effect wears off” value in the data set on blood glucose level (subcutaneous 5 IU/kg) is recorded as 4 h. Moreover, the “blood glucose level, % of the initial level” value with blood glucose level (subcutaneous 5 IU/kg, at 2 h) was “about 28%”. Further, the “relative (oral) bioavailability” value in data set [2] (oral 20 IU/kg versus s.c. free INS 5 IU/kg) was 0.7%. Also, in data set [2] (subcutaneous 5 IU/kg), the “time of maximum serum INS level” value is at most 1 h and the “time of return of serum INS to minimum” value is on record as 4 h. Moreover, the “fluorescence in intestine epithelial tissue sections” value in data set [3] is “only weak fluorescence”. In addition, in the data set on blood glucose levels (oral administration), the glucose response entry was “fail to generate a significant glucose response”. The “time to restoration of high blood glucose levels” value in the data set with blood glucose levels (subcutaneous injection) was at most 4 h. In addition, in the data set on trypsin, the “active INS remaining” value is listed as “almost completely degraded”. In data set [4], the “degradation of ingested INS” value is listed as “almost completely degrades”.
Consider “regular insulin: regular insulin (INS) as used by injection in diabetics”, for which, in data set [5], the duration of action was 4 to 8 h.

Values taken from US20240277818A1, “COMPOSITION INCLUDING A METAL-ORGANIC FRAMEWORK (MOF) NANOPARTICLE FOR ORAL PROTEIN ADMINISTRATION” (UNIVERSITY OF NORTH TEXAS, priority 2023, published 2024).
